The target of assay [1] is prefusion stabilised SARS-CoV spike ectodomain trimer, residues 1-1160, two proline substitutions, T (SARS-CoV). As to the kind of experiment: ELISA, 47D11 titrated on coated spike ectodomain. (ELISA stands for enzyme-linked immunosorbent assay.)
For assay [2] the target is unchanged. As to the kind of experiment: ELISA: spike ectodomain coated on the plate, 47D11 titrated, OD450nm.

Usually EC50 (read off the curve) stands for the concentration needed to bring the measured effect to its halfway point. Read a high EC50 (read off the curve) as lower potency in that assay.

On to “47D11 fully human IgG1 monoclonal antibody”, for which the EC50 (read off the curve) in assay [1] and in assay [2] was 0.2 nM each time.

(Values after US20210340225A1.)
